Measurements: article PMC9131392 (Biomacromolecules, 2021)
“And” between values parts separate entries of the source, which are not always exact repeats. Equal entries are not always repeated. Where two headings read alike, the source gives them in different places.

Assays:
SEC-SAXS [1] = molecular target: the molecule itself; test: SEC-SAXS
SEC-SAXS [2] = molecular target: the molecule itself; test: SEC-SAXS; remark: listed apart in the source

B1: C-phycocyanin (αβ) monomer from Spirulina platensis (complex)
chain 1: not shown
chain 2: MFDAFTKVVSQADTRGEMLSTAQIDALSQMVAESNKRLDAVNRITSNASTIVSNAARSLFAEQPQLIAPGGNAYTSRRMAACLRDMEIILRYVTYAVFAGDASVLEDRCLNGLRETYLALGTPGSSVAVGVGKMKEAALAIVNDPAGITPGDCSALASEIASYFDRACAAVS
modifications: open-chain tetrapyrrole chromophore cofactors attached covalently | open-chain tetrapyrrole chromophore cofactors attached covalently
stoichiometry N (SEC-SAXS [1]): 3 | stoichiometry N (SEC-SAXS [2]): 12 and 24
